Measured values taken from patent US20120308554A1, “VEGF-D/VEGFR2/3-MEDIATED REGULATION OF DENDRITES” (UNIVERSITAT HEIDELBERG, priority 2011, published 2012).

B1: rVEGFD: recombinant mouse VEGFD (R&D Systems) (protein)
chain: FAATFYDTETLKVIDEEWQRTQCSPRETCVEVASELGKTTNTFFKPPCVNVFRCGGCCNEEGVMCMNTSTSYISKQLFEISVPLTSVPELVPVKIANHTGCKCLPTGPRHPYSIIRR
B2: CaMKIVK75E: dominant negative mutant of CaMKIV (protein, UniProt P08414 1-469, looked up, variant K75E)
Calcium/calmodulin-dependent …: MLKVTVPSCPSSPCSSVTASTENLVPDYWIDGSNRDPLGDFFEVESELGRGATSIVYRCKQKGTQKPYALKVLKETVDKKIVRTEIGVLLRLSHPNIIKLKEIFETPTEISLVLELVTGGELFDRIVEKGYYSERDARDAVKQILEAVAYLHENGIVHRDLKPENLLYATPAPDAPLKIADFGLSKIVEHQVLMKTVCGTPGYCAPEILRGCAYGPEVDMWSVGIITYILLCGFEPFYDERGDQFMFRRILNCEYYFISPWWDEVSLNAKDLVKKLIVLDPKKRLTTFQALQHPWVTGKAANFVHMDTAQKKLQEFNARRKLKAAVKAVVASSRLGSASSSHTSIQENHKASSDPPSTQDAKDSTDLLGKKMQEEDQEEDQVEAEASADEMRKLQSEEVEKDAGVKEEETSSMVPQDPEDELETDDPEMKRDSEEKLKSVEEEMDPMTEEEAPDAGLGVPQQDAIQPEY

Legend:
Type in all cases: cell-based, mice
ERK1/2 = assay: Immunoblot analysis with phospho-specific antibodies, ERK1/2; conditions: rVEGFD treatment for various lengths of time
Description: (§1) A: Immunoblot analysis using phosphor-specific antibodies of hippocampal neurons with or without rVEGFD treatment for the indicated times. Tubulin was used as loading control.
(§2) B: Quantification of the experiment shown in A. rVEGFD treatment causes a significant increase of CREB, ERK1/2 and p38 MAP kinase phosphorylation. All values are expressed as percentage of untreated controls (n=5).
(§3) Next, the signaling mechanisms through which VEGFD controls dendrite architecture were determined. Cell lysates from hippocampal neurons treated with rVEGFD for various lengths of time were subjected to immunoblot analysis using a large panel of antibodies that are specific for the phosphorylated (i.e. activated) forms of signaling molecules (FIG. 9). […] Therefore, it was determined whether p38 MAPK mediates the effects of VEGFD on dendrite geometry. […] Because SB203580 inhibits the alpha and beta isoforms of p38 MAPK, the role of p38 MAPK in VEGFD-mediated dendritic arborization by RNAi was further investigated. Two pAAVs, shp38α and shp38β, that contain expression cassettes for shRNAs specific for the alpha and the beta isoform, respectively, of p38 MAPK, were generated.

hippocampal cultures = assay: MEA recordings of spontaneous network activity; conditions: rAAV-shVEGFD infected cultures, 100 ng/ml rVEGFD added to media
Description: MEA recordings were done as known in the art. From DIV7 to DIV13, recordings of spontaneous network activity were acquired for 5 min once per day.

CREB = assay: Immunoblot analysis with phospho-specific antibodies, CREB; conditions: rVEGFD treatment for various lengths of time
Description: as §1, §2, §3

hippocampal neurons = assay: Morphometric analyses (total dendritic length, Sholl analysis, spine density) of cultured hippocampal neurons
Description: Hippocampal neurons from newborn C57BL/6 mice were cultured as known in the art. Experiments were done after a culturing period of 10 to 14 days in vitro (DIV). DNA transfection was done on DIV8 using Lipofectamine 2000 (Invitrogen, San Diego, Calif.). For the studies on dendrite morphology, neurons were analyzed 4-5 days after transfection.
For 3D Sholl Analysis, total dendritic length and spine morphology were calculated using Object-Image freeware software with a specific set of macros (written by Dr. E. Ruthazer, McGill University, Quebec). Briefly, a z-Stack acquisition was imported, calibrated in Object-Image and manually traced. Total dendritic length was then computed. For Sholl analysis, the shell interval was set at 5 μm. All analyses were performed blind. In all in vitro experiments, for each condition, a minimum of 12 neurons from three independent preparations was analyzed. For the Golgi staining quantifications of 20 neurons for each condition from 4 different injected animals per viral construct were traced and analyzed.
Hippocampal neurons were fixed with 4% paraformaldehyde at room temperature for 20 min. For immunostaining, primary and secondary antibodies were applied in GDB buffer (30 mM phosphate buffer [pH7.4] containing 0.2% gelatin, 0.5% Triton X-100, and 0.9 M NaCl). For the morphometric analyses, fluorescence images were acquired using a confocal laser-scanning microscope TCS SP2 (Leica, Mannheim, Germany) equipped with an inverted fluorescence microscope DM IRE2 (Leica) and Leica confocal scan software. All images were obtained with sequential acquisition setting at a resolution of 1024×1024 pixels. Each image was a z series projection of images taken at 1 μm intervals.

p38 MAP kinase = assay: Immunoblot analysis with phospho-specific antibodies, p38 MAP kinase; conditions: rVEGFD treatment for various lengths of time
Description: as §1, §2, §3

VEGFD = assay: qRT-PCR analysis of VEGFD expression in hippocampal neurons; conditions: hippocampal neurons infected with rAAV
Description: Total RNA was isolated at DIV10 to DIV13 from hippocampal primary neuron cultures or isolated brain tissues with Rneasy Mini Kit (Qiagen, Hilden, Germany) including an optional Dnase I treatment at room temperature for 15 min according to manufacturer's instructions (Qiagen). 1.2 μg of extracted RNA was reverse transcribed into first strand cDNA using High Capacity cDNA Reverse Transcription kit (Applied Biosystems, Foster City, Calif.).
Quantitative reverse transcriptase PCR (qRT-PCR) was done on an ABI7300 thermal cycler using Universal qRT-PCR master mix with TaqMan Gene Expression Assays for the indicated genes (Applied Biosystems). The following TaqMan Gene Expression Assays were used in this study: Gusb (Mm00446953_m1), cFos (Mm00487425_m1), VEGFD (Mm00438965_m1), VEGFC (Mm01202432_m1), VEGF (Mm01281449_m1), VEGFR3 (Mm01292618_m1), beta-actin (Mm00607939_s1), beta-2 microglobulin (Mm00437762_m1), CBP (Mm01342435_m1), p38 MAPK alpha (Mm00442497_m1), p38 MAPK beta (Mm00440955_m1). Expression of target genes was normalized against the expression of Gusb as endogenous control gene. Data were derived from at least 5 independent experiments.

Molecule	ERK1/2 phosphorylation (ERK1/2)	rescue of decreased spike frequency (hippocampal cultures)	CREB phosphorylation (CREB)	dendrite length or complexity (hippocampal neurons; neurons transfected with pAAV-shSCR and pAAV-emptymC, rVEGFD 100 ng/ml 3 days)	neuronal morphology (hippocampal neurons; neurons without nuclear calcium signaling blockade)	effect on reduction of dendrite length and complexity caused by shVEGFD (hippocampal neurons; pAAV-shVEGFD transfected neurons, rVEGFD 100 ng/ml 3 days or co-transfection)	restoration of spine density in CaMBP4 or CaMKIVK75E expressing neurons (hippocampal neurons; rVEGFD 100 ng/ml 3 days or VEGFD-HA expression)	rescue of reduction in dendrite length and complexity caused by CaMBP4 or CaMKIVK75E (hippocampal neurons; recombinant factors 100 ng/ml for 3 days, or VEGFD-HA expression)	activation of p38 MAPK (p38 MAP kinase)	VEGFD mRNA levels (VEGFD)
B1	significant but moderate	partly rescued	significant but moderate	did not affect dendrite length or complexity	no detectable effect on neuronal morphology	reversed	failed to restore normal spine density	rescued the reduction in dendrite length and complexity	very robust	–
B2	–	–	–	–	–	–	–	–	–	significantly lower
